The values below come from US20150125397A1, “DUAL SPECIFIC BINDING PROTEINS DIRECTED AGAINST IMMUNE CELL RECEPTORS AND AUTOANTIGENS” (ABBVIE INC., priority 2013, published 2015).

The target of this assay is Human IgM (Homo sapiens, UniProt P01871). Kind of assay: IgM binding assay (human IgM).
Sequence of Human IgM (P01871 1-433 limits assumed): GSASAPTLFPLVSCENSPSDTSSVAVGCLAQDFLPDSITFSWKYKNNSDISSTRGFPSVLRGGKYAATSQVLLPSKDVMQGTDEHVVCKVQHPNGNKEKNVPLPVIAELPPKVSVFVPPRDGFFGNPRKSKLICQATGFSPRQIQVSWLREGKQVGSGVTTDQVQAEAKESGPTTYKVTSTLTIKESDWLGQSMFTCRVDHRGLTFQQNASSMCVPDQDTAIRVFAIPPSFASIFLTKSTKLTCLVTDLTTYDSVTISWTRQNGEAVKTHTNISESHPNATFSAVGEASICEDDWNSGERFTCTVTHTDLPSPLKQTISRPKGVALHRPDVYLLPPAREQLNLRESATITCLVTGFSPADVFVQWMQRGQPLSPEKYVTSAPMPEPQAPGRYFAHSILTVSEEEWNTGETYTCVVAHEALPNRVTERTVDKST
Sequence of Human IgM (P01591 23-159 partner): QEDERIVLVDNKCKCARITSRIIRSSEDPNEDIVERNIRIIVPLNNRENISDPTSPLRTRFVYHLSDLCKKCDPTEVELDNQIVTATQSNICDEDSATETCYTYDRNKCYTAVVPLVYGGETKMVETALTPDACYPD

B1: DVD3767: DVD-Ig: VD1 hIgM (HB-57.3), SS linker, VD2 DNA (PA4); heavy SEQ ID NO 78, light 79 (antibody)
heavy: QVQLQQPGAEFVKPGAPVKLSCKASGYPFTTYWVNWMKQRPGRGLEWIGRIDPYDSETLYNQKFKDKATLTVDKSSSTAYIQLSSLTSEDSAVYYCARETYDYPFAYWGQGTLVTVSSASTKGPEVQLVESGGGLVKPGGSLKLSCVASGFTFSTYAMSWVRQTPTKRLEWVATISRGGVSTYYPDTVKGRFTISRDNAKNTLYLQMSSLRSEDTAMYYCARPPTIVTTWFAYWGQGTLVTVSS
light: DIVMTQSPSSLAMSVGQKVTMSCKSSQSLLNSSNQKNYLAWYQQKPGQSPELLVYFASTRESGVPDRFIGSGSGTDFTLTISSVQAEDLADYFCQQHYSTPFTFGSETKLEIKRTVAAPDVVMTQTPLSLPVSLGDQASISCRSSQSLVHSNGNTYLHWYLQKPGQSPKLLIYKVSNRFSGVPDRFSGSGSGTDFTLKISRVEAEDLGAYFCSQSTHVPYTFGGPTRLEIKR
Turning to B1, the “potency in human IgM binding assay” value was “highest potency”.

B2: DVD3769: DVD-Ig: VD1 hIgM (HB-57.3), SL linker, VD2 DNA (PA4); heavy SEQ ID NO 80, light 81 (antibody)
heavy: QVQLQQPGAEFVKPGAPVKLSCKASGYPFTTYWVNWMKQRPGRGLEWIGRIDPYDSETLYNQKFKDKATLTVDKSSSTAYIQLSSLTSEDSAVYYCARETYDYPFAYWGQGTLVTVSSASTKGPEVQLVESGGGLVKPGGSLKLSCVASGFTFSTYAMSWVRQTPTKRLEWVATISRGGVSTYYPDTVKGRFTISRDNAKNTLYLQMSSLRSEDTAMYYCARPPTIVTTWFAYWGQGTLVTVSS
light: DIVMTQSPSSLAMSVGQKVTMSCKSSQSLLNSSNQKNYLAWYQQKPGQSPELLVYFASTRESGVPDRFIGSGSGTDFTLTISSVQAEDLADYFCQQHYSTPFTFGSETKLEIKRTVAAPSVFIFPPDVVMTQTPLSLPVSLGDQASISCRSSQSLVHSNGNTYLHWYLQKPGQSPKLLIYKVSNRFSGVPDRFSGSGSGTDFTLKISRVEAEDLGAYFCSQSTHVPYTFGGPTRLEIKR
As to B2, the “potency in human IgM binding assay” value was “highest potency”.
